Source: patent US20100209436

T1: human OPA1 splice variant 7
T1 chain: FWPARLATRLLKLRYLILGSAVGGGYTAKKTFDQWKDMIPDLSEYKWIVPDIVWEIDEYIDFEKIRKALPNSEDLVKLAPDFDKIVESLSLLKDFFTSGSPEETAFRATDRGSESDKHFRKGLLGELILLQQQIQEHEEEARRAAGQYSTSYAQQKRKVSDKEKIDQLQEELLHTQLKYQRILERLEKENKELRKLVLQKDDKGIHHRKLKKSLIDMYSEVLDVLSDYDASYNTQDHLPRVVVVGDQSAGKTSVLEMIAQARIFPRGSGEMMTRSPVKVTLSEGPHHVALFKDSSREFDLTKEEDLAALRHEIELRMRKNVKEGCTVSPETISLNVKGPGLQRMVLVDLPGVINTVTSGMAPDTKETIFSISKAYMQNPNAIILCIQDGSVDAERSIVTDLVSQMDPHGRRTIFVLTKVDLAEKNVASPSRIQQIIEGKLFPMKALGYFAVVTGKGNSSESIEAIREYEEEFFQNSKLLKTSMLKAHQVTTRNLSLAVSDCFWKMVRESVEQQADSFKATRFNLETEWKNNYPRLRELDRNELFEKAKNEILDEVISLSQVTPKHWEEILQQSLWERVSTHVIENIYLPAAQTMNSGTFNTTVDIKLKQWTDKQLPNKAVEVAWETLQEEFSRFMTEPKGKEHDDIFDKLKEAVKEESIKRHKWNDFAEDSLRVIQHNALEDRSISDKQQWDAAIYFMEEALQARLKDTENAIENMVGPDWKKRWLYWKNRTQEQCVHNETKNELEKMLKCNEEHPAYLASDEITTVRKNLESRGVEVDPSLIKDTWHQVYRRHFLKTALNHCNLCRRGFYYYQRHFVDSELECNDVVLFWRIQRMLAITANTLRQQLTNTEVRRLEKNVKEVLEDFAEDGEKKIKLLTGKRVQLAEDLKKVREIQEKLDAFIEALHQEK

T2: human OPA1 splice variant 4
T2 chain: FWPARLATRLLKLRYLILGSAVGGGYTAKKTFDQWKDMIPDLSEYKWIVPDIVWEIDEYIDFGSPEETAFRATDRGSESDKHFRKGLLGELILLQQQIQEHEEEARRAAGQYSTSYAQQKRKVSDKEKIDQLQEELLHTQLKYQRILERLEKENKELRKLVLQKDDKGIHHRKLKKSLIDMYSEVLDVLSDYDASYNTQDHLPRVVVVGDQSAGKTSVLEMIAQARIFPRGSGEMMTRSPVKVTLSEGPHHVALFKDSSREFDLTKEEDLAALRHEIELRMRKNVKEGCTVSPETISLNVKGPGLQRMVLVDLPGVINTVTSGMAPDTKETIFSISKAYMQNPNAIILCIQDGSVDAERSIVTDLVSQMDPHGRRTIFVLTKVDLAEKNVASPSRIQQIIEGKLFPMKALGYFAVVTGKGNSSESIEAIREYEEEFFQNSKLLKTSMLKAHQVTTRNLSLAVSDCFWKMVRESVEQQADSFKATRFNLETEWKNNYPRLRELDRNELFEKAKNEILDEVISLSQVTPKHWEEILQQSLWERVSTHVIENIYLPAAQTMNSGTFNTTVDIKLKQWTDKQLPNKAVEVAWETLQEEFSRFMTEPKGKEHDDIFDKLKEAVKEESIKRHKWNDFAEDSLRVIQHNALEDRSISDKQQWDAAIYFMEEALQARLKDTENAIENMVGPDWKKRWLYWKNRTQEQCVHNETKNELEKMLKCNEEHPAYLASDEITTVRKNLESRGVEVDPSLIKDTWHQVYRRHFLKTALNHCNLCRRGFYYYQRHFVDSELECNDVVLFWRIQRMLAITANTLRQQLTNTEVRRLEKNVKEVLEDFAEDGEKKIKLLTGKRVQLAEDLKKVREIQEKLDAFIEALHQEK

T3: human OPA1 splice variant 8 (A210V polymorphism)
T3 chain: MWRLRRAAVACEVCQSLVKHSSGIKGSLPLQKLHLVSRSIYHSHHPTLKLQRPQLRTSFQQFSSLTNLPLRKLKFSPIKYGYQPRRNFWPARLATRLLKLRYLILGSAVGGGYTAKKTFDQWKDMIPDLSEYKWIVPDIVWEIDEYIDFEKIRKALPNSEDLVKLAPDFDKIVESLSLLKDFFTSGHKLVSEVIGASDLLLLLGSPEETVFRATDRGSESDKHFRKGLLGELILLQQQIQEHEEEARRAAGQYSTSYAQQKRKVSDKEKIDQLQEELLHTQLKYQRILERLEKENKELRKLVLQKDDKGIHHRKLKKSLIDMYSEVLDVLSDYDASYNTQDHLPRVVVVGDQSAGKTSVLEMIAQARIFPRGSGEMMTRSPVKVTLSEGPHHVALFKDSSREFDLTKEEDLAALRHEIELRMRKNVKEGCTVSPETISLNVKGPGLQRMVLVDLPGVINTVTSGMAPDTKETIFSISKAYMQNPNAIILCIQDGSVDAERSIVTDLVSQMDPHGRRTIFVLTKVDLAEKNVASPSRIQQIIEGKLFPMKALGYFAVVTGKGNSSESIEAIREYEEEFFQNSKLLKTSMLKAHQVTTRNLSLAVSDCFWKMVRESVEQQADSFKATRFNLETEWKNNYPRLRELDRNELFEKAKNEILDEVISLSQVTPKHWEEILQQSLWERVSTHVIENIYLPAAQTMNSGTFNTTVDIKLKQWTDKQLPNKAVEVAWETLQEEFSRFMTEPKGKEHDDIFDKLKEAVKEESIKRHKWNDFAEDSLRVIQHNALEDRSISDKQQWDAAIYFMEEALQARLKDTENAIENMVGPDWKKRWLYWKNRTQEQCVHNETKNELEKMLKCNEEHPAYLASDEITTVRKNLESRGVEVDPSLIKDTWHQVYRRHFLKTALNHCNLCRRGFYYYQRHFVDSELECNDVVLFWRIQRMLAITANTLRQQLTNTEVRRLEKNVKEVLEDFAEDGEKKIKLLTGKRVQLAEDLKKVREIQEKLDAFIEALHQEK


Key:
[1] = target: T1, human OPA1 splice variant 7
[2] = target: T2, human OPA1 splice variant 4
[3] = target: T3, human OPA1 splice variant 8 (A210V …)

Row | Protein | OPA1 processing (western blot, Δyta10Δyta12 yeast) [1] | OPA1 processing (western blot, yeast deletion strains) [1] | OPA1 processing (western blot, Δyta10Δyta12 yeast) [2] | OPA1 processing (western blot, Δyta10Δyta12 yeast) [3]
1 | murine paraplegin expressed alone (Yta10 (1-61)-paraplegin (44-781)) (protein) MMMWQRYARGAPRSLTSLSFGKASRISTVKPVLRSRMPVHQRLQTLSGLATRNTIHRSTQIAARGTPVGPAAAGGHAPQSLLLRILTPSFEGISGLLLKQHIVPNAVRLWPLSGSTLYFNTSRMKQKNKDNDKPKGKTPEDDEEEKRRKEREDQMYRERLRTLFIIALVMSLLNSLSTSGGSISWADFVNEMLAKGEVQRVQVVPESDVVEVYLHPGAVVFGRPRLALMYRMQVANIDKFEEKLRAAEDELNIESKDRIPVSYKRTGFFGNALYALGMTAVGLAILWYVFRLAGMTGREGGFSAFNQLKMARFTIVDGKTGKGVSFQDVAGMHEAKLEVREFVDYLKSPERFLQLGAKVPKGALLLGPPGCGKTLLAKAVATEAQVPFLAMAGPEFVEVIGGLGAARVRSLFKEARARAPCIVYIDEIDAVGKKRSTSMSGFSNTEEEQTLNQLLVEMDGMGTTDHVIVLASTNRADVLDNALMRPGRLDRHVFIDLPTLQERREIFEQHLKGLKLTQPSSFYSQRLAELTPGFSGADIANICNEAALHAAREGHTSVHTFNFEYAVERVIAGTAKKSKILSKEEQRVVAFHESGHALVGWLLEHTEAVMKVSIAPRTNAALGFSQMLPRDQYLFTKEQLFERMCMALGGRAAEAISFSRVTSGAQDDLRKVTRIAYSMVKQFGMAPSIGPVSFPEAQEGLMGIGRRPFSQGLQQMMDHEAKLLVAKAYRHTEKVLLDNLDKLQALANALLEKEVINYEDIEALIGPPPHGPKKMIAPQKWIDAEKERQASGEEEAPAP | Cleavage of OPA1 upon expression of paraplegin alone was not observed |  |  | 
2 | yeast m-AAA protease (subunits Yta10 and Yta12) (protein) chain 1: MMMWQRYARGAPRSLTSLSFGKASRISTVKPVLRSRMPVHQRLQTLSGLATRNTIHRSTQIRSFHISWTRLNENRPNKEGEGKNNGNKDNNSNKEDGKDKRNEFGSLSEYFRSKEFANTMFLTIGFTIIFTLLTPSSNNSGDDSNRVLTFQDFKTKYLEKGLVSKIYVVNKFLVEAELVNTKQVVSFTIGSVDIFEEQMDQIQDLLNIPPRDRIPIKYIERSSPFTFLFPFLPTIILLGGLYFITRKINSSPPNANGGGGGGLGGMFNVGKSRAKLFNKETDIKISFKNVAGCDEAKQEIMEFVHFLKNPGKYTKLGAKIPRGAILSGPPGTGKTLLAKATAGEANVPFLSVSGSEFVEMFVGVGASRVRDLFTQARSMAPSIIFIDEIDAIGKERGKGGALGGANDEREATLNQLLVEMDGFTTSDQVVVLAGTNRPDVLDNALMRPGRFDRHIQIDSPDVNGRQQIYLVHLKRLNLDPLLTDDMNNLSGKLATLTPGFTGADIANACNEAALIAARHNDPYITIHHFEQAIERVIAGLEKKTRVLSKEEKRSVAYHEAGHAVCGWFLKYADPLLKVSIIPRGQGALGYAQYLPPDQYLISEEQFRHRMIMALGGRVSEELHFPSVTSGAHDDFKKVTQMANAMVTSLGMSPKIGYLSFDQNDGNFKVNKPFSNKTARTIDLEVKSIVDDAHRACTELLTKNLDKVDLVAKELLRKEAITREDMIRLLGPRPFKERNEAFEKYLDPKSNTEPPEAPAATN chain 2: MLLLSWSRIATKVVRRPVRFRSYYGLTHIKSLHTQYRLLNRLQENKSGNKNEDNNEDAKLNKEIPTDEEVEAIRKQVEKYIEQTKNNTIPANWKEQKRKIDESIRRLEDAVLKQESNRIQEERKEKEEENGPSKAKSNRTKEQGYFEGNNSRNIPPPPPPPPPKPPLNDPSNPVSKNVNLFQIGLTFFLLSFLLDLLNSLEEQSEITWQDFREKLLAKGYVAKLIVVNKSMVKVMLNDNGKNQADNYGRNFYYFTIGSIDSFEHKLQKAQDELDIDKDFRIPVLYVQEGNWAKAMFQILPTVLMIAGIIWLTRRSAQAAGGSRGGIFGLSRSKAKKFNTETDVKIKFKDVAGCDEAKEEIMEFVSFLKEPSRYEKMGAKIPRGAILSGPPGTGKTLLAKATAGEAGVPFYFVSGSEFVEMFVGVGAARVRDLFKTARENAPSIVFIDEIDAIGKARQKGNFSGANDERENTLNQMLVEMDGFTPADHVVVLAGTNRPDILDKALLRPGRFDRHINIDKPELEGRKAIFAVHLHHLKLAGEIFDLKNRLAALTPGFSGADIANVCNEAALIAARSDEDAVKLNHFEQAIERVIGGVERKSKLLSPEEKKVVAYHEAGHAVCGWYLKYADPLLKVSIIPRGQGALGYAQYLPGDIFLLTEQQLKDRMTMSLGGRVSEELHFPSVTSGASDDFKKVTSMATAMVTELGMSDKIGWVNYQKRDDSDLTKPFSDETGDIIDSEVYRIVQECHDRCTKLLKEKAEDVEKIAQVLLKKEVLTREDMIDLLGKRPFPERNDAFDKYLNDYETEKIRKEEEKNEKRNEPKPSTN |  | small isoforms did not accumulate in cells lacking the yeast m-AAA protease subunits Yta10 or Yta12 |  | 
3 | homo-oligomeric murine Afg3l1 complex (Yta10 (1-61)-Afg3l1 (25-789)-Myc) (protein) MMMWQRYARGAPRSLTSLSFGKASRISTVKPVLRSRMPVHQRLQTLSGLATRNTIHRSTQIGGCAGSGGTVWSSVRACGIALQGHLGRCSQQLALQGKLTSFSPRLYSKPPRGFEKFFKNKKNRKSASPGNSVPPKKEPKNAGPGGDGGNRGGKGDDFPWWKRMQKGEFPWDDKDFRSLAVLGAGVAAGFLYFYFRDPGKEITWKHFVQYYLARGLVDRLEVVNKQFVRVIPVPGTTSERFVWFNIGSVDTFERNLESAQWELGIEPTNQAAVVYTTESDGSFLRSLVPTLVLVSILLYAMRRGPMGTGRGGRGGGLFSVGETTAKILKNNIDVRFADVAGCEEAKLEIMEFVNFLKNPKQYQDLGAKIPKGAMLTGPPGTGKTLLAKATAGEANVPFITVNGSEFLEMFVGVGPARVRDMFAMARKHAPCILFIDEIDAIGRKRGRGHLGGQSEQENTLNQMLVEMDGFNSSTNVVVLAGTNRPDILDPALTRPGRFDRQIYIGPPDIKGRSSIFKVHLRPLKLDGSLSKDALSRKLAALTPGFTGADISNVCNEAALIAARHLSPSVQERHFEQAIERVIGGLEKKTQVLQPSEKTTVAYHEAGHAVVGWFLEHADPLLKVSIIPRGKGLGYAQYLPREQFLYTREQLFDRMCMMLGGRVAEQLFFGQITTGAQDDLRKVTQSAYAQIVQFGMSEKLGQVSFDFPRQGETMVEKPYSEATAQLIDEEVRCLVRSAYNRTLELLTQCREQVEKVGRRLLEKEVLEKADMIELLGPRPFAEKSTYEEFVEGTGSLEEDTSLPEGLKDWNKGREEGGTERGLQESPV | expression of each of the murine subunits, Afg3l2 or Afg3l1, in Δyta10Δyta12 cells promoted OPA1 processing; the isoform S4 predominantly accumulated in the presence of Afg3l1 |  | Afg3l1 and Afg3l2 complexes mediated processing of OPA1 splice variants 4 and 8 in a similar manner | Afg3l1 and Afg3l2 complexes mediated processing of OPA1 splice variants 4 and 8 in a similar manner
